We go through 3 substances from article PMC11214941.

Data set [1] in a line: ELISA of EREG in HEK293 conditioned medium. Particulars: glycan lost; control: EREG-WT. A general note: An ELISA detects its analyte on a solid surface through an enzyme-linked reagent.
The nature of data set [2]: IF of GFP-EREG in HEK293, membrane localisation. Particulars: glycan lost; control: GFP-EREG-WT, untreated.
Data set [3] is described as follows: CHX chase immunoblot, protein remaining. Particulars: glycan lost; control: untreated. For orientation: In western blotting, separated proteins are transferred to a membrane and probed.

Consider Epiregulin (EREG): N47Q, for which the expression_or_secretion result in data set [1] is listed as “decreases”. Further, the localisation_or_trafficking result in data set [2] is “decreases”.
For the substance Epiregulin (EREG): NGI-1, the degradation_or_half_life result in data set [3] is “decreases”. Besides, the localisation_or_trafficking result in data set [2] is on record as “decreases”.
With Epiregulin (EREG): tunicamycin, the degradation_or_half_life result in data set [3] is “decreases”. For the same substance, the localisation_or_trafficking result in data set [2] is listed as “decreases”.
